Results on 21 molecules are retold here after patent US20230416942A1 (YALE UNIVERSITY, published 2023).

For test [1], the target named is T1, TNF (recombinant human protein) (human, UniProt P01375 77-233).
T1 construct: Recombinant human protein immobilized at 5 ug/mL for ELISA
Description: ELISA, recombinant human protein coated, nanobody-Fc titrated, anti-human IgG HRP. How it is done: (§1) Recombinant human protein was diluted in PBS to a final concentration of 5 μg/mL and was immobilized on 96-well flat bottom MaxiSorp plates (Thermo Fisher Scientific) and placed at 4° C. overnight. Plates were washed three times with 225 μL ELISA wash buffer (PBS with 0.05% Tween 20) and 200 μL ELISA blocking buffer (PBS with 1% Casein) was added to the well. Plates were incubated with shaking for 2 hours at room temperature. ELISA blocking buffer was removed from the wells and appropriate dilutions of recombinant nanobodies in 100 μL ELISA blocking buffer was added to each well. Plates were incubated with shaking for 2 hours at room temperature. Plates were washed 3 times with 225 μL ELISA wash buffer and 1:5000 goat anti-human IgG HRP (Millipore Sigma) in 100 μL ELISA blocking buffer was added to the wells. Plates were incubated with shaking for 1 hour at room temperature. Plates were washed 6 times with 225 μL ELISA wash buffer. 50 μL TMB substrate (BD Biosciences) was added to the wells and plates were incubated for 15 minutes in the dark at room temperature. 50 μL 1 M sulfuric acid was added to the wells and absorbance at 450 nm was measured in a Synergy HTX Multi-Mode Microplate Reader (BioTek).

Test [2] has as its target REAP Off-Targets. Put plainly: REAP, nanobody-Fc on yeast-displayed human antigen library.
Test [3] deals with T2, TNFSF18 (recombinant human protein) (human, UniProt Q9UNG2 52-177, limits assumed).
T2 construct: Recombinant human protein immobilized at 5 ug/mL for ELISA
T2 sequence (looked up): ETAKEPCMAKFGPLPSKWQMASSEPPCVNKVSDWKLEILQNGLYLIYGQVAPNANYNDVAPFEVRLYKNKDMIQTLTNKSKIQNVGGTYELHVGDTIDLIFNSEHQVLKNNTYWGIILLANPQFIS
Description: ELISA, recombinant human protein coated, nanobody-Fc titrated, anti-human IgG HRP. The method, then:
as §1
(In general: ELISA stands for enzyme-linked immunosorbent assay.)

The target of test [4] is T3, CD3D (human, UniProt P04234 22-105).
T3 construct: Recombinant human protein in ELISA
Description: ELISA, plate-coated recombinant human protein, nanobody-Fc. How it is done: as §1

The target of test [5] is T4, IL17A (human, UniProt Q16552 24-155).
T4 construct: Recombinant human protein in ELISA and BLI
T4 sequence (looked up): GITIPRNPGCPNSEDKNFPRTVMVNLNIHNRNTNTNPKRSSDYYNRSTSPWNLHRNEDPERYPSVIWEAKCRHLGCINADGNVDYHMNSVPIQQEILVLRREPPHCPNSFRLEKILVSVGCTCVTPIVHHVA
The test is described as above. How it is done:
as §1

The target in test [6] is T4, IL17A. Put plainly: BLI, AHC sensor, nanobody-Fc captured, antigen in solution. The text has this: Octet RED96 System (ForteBio) was used to perform kinetic measurement of nanobody binding to antigens. For Anti-Penta-His Biosensors (HIS1K), his-tagged recombinant human proteins were first immobilized onto the biosensors, and recombinant nanobodies fused with human IgG1 were applied to detect binding. For Anti-Human IgG Fc Capture Biosensors (AHC), recombinant nanobodies fused with human IgG1 were first loaded onto the biosensors, and probes were dipped in serial dilutions of recombinant human antigens.
On the technique in general: In BLI a coated tip is dipped into the sample, and binding shifts an interference pattern.

Test [7] deals with T5, IL13 (human, UniProt P35225 35-146, limits assumed).
T5 construct: Recombinant human protein in ELISA
Put plainly: ELISA, plate-coated recombinant human protein, nanobody-Fc. How it is done:
as §1

In test [8] the target is T6, CEACAM4 (human, UniProt O75871 36-155, limits assumed).
T6 construct: Recombinant human protein in ELISA
T6 sequence (looked up): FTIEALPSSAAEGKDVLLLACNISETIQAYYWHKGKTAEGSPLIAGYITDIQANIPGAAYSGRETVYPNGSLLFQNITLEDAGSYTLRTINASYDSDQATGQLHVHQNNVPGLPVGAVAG
The test is described as above. The method, then: as §1

Test [9] has as its target T7, TIGIT (human, UniProt Q495A1 22-141).
T7 construct: Recombinant human protein in ELISA
T7 sequence (looked up): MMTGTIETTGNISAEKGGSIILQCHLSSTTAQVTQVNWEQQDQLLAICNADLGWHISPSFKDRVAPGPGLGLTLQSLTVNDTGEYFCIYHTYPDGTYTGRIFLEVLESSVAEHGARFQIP
The description is as above. The method, then:
as §1

The target of test [10] is T8, CCL16 (human, UniProt O15467 24-120).
T8 construct: Recombinant human protein in ELISA and BLI
T8 sequence (looked up): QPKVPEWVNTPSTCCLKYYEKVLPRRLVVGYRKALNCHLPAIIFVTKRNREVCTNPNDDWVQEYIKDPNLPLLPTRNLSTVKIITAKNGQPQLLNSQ
The description is as above. How it is done: as §1

Test [11] addresses T9, IL21 (human, UniProt Q9HBE4 32-162, limits assumed).
T9 construct: Recombinant human protein in ELISA
The description is as above. The method, then:
as §1

By EC50 is commonly meant the concentration giving half of the maximal effect. Usually Kd stands for the equilibrium constant for the complex coming apart. A high value points to a looser complex.

T9 sequence (Q9HBE4 32-162 limits assumed): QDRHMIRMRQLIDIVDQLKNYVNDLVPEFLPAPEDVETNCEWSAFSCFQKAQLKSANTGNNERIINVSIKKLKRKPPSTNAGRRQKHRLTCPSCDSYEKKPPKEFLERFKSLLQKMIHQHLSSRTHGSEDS
T3 sequence (P04234 22-105 limits assumed): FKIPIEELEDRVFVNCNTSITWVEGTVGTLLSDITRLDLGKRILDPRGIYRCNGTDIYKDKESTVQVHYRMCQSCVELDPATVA
T5 sequence (P35225 35-146 limits assumed): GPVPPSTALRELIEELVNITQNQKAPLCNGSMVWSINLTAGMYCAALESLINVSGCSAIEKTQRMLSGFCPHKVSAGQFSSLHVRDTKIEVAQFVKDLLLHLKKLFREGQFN
T1 sequence (P01375 77-233 limits assumed): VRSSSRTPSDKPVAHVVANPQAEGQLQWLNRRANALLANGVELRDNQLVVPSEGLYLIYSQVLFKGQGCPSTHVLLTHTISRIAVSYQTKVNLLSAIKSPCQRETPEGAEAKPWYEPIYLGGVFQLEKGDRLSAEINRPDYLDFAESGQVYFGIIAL

B1: TNF_Nb105 (Fc fusion)
chain: QVQLQESGGGLVQAGGSLRLSCAASGTISVTYFMGWYRQAPGKERELVAGIGTGANTYYADSVKGRFTISRDNAKNTVYLQMNSLKPEDTAVYYCAAYIGAPVYGDGQSRNKAKVYDYWGQGTQVTVSS
notes: Nanobody expressed as an Fc fusion protein (fused with human IgG1) in Expi293 cells; not shown: human IgG1 Fc; nanobodies expressed as Fc fusion from vector pCER243
Consider B1, for which, in [1], the EC50 was 5.57 nM. In test [2], the REAP Off-Targets (number) stood at 2 off-targets.

B2: TNFSF18_Nb98 (Fc fusion)
chain: QVQLQESGGGLVQAGGSLRLSCAASGSIFYVIAMGWYRQAPGKERELVATITAGTNTYYADSVKGRFTISRDNAKNTVYLQMNSLKPEDTAVYYCAVYALQQDVYDRSHAYWGQGTQVTVSS
notes: as for B1
Take B2: the EC50 in test [3] amounted to 6.05 nM. This molecule had an REAP Off-Targets (number) in [2] of 4 off-targets.

B3: CD3D_Nb2.36 (Fc fusion)
chain: QVQLQESGGGLVQAGGSLRLSCAASGSISAYWAMGWYRQAPGKEREFVAAINFGANTYYADSVKGRFTISRDNAKNTVYLQMNSLKPEDTAVYYCAAERDGDYHDYWGQGTQVTVSS
notes: Nanobody expressed and tested as Fc fusion (human IgG1); not shown: human IgG1 Fc (vector pCER243)
Regarding B3, the EC50 in test [4] was 29.6 nM.

B4: CD3D_Nb2.33 (Fc fusion)
chain: QVQLQESGGGLVQAGGSLRLSCAASGSIFYAEYMGWYRQAPGKEREFVAAITAGSTTYYADSVKGRFTISRDNAKNTVYLQMNSLKPEDTAVYYCAADGYYYGIEFTYYEYWGQGTQVTVSS
notes: as for B3
As for B4, the EC50 in test [4] is 8.22 nM.

B5: IL17A_Nb2.90 (Fc fusion)
chain: QVQLQESGGGLVQAGGSLRLSCAASGYISLRFYMGWYRQAPGKEREFVATIDDGSSTYYADSVKGRFTISRDNAKNTVYLQMNSLKPEDTAVYYCAVTAQTYYDHVYWGQGTQVTVSS
notes: as for B3
Regarding B5, in [5], the EC50 was found to be 0.249 nM. For the same molecule, binding in test [6] was characterised by a dissociation constant (Kd) of 0.977 nM.

B6: CD3D_Nb2.34 (Fc fusion)
chain: QVQLQESGGGLVQAGGSLRLSCAASGTISTLDYMGWYRQAPGKEREFVAAINYGSNTYYADSVKGRFTISRDNAKNTVYLQMNSLKPEDTAVYYCAAADVTRPAYDYWGQGTQVTVSS
notes: as for B3
As for B6, the EC50 in test [4] stood at 0.575 nM.

B7: CD3D_Nb2.35 (Fc fusion)
chain: QVQLQESGGGLVQAGGSLRLSCAASGTIFAYWYMGWYRQAPGKEREFVAAIGDGSSTYYADSVKGRFTISRDNAKNTVYLQMNSLKPEDTAVYYCAAEAPGYGHTYWGQGTQVTVSS
notes: as for B3
Regarding B7, in [4], the EC50 came to 1.72 nM.

B8: TNF_Nb109 (Fc fusion)
chain: QVQLQESGGGLVQAGGSLRLSCAASGYISGEWFMGWYRQAPGKERELVAGISRGSTTYYADSVKGRFTISRDNAKNTVYLQMNSLKPEDTAVYYCAVYLTHKGYDGADGVVHHRYWGQGTQVTVSS
notes: as for B1
Regarding B8, the EC50 in test [1] is 23.8 nM. The REAP Off-Targets (number) in [2] worked out at 7 off-targets.

B9: IL13_Nb2.41 (Fc fusion)
chain: QVQLQESGGGLVQAGGSLRLSCAASGTIFVDEFMGWYRQAPGKEREFVASINDGGSTYYADSVKGRFTISRDNAKNTVYLQMNSLKPEDTAVYYCAVFEPSPDGDPFGDRAWFWYWGQGTQVTVSS
notes: as for B3
Turning to B9, the EC50 in test [7] turned out to be 1.02 nM.

B10: TNFSF18_Nb96 (Fc fusion)
chain: QVQLQESGGGLVQAGGSLRLSCAASGNISWVYWMGWYRQAPGKERELVAGIATGGSTNYADSVKGRFTISRDNAKNTVYLQMNSLKPEDTAVYYCAVVASNGSRFWYWGQGTQVTVSS
notes: as for B1
Consider B10, for which the EC50 in test [3] came to 4.07 nM. Moreover, in [2], the REAP Off-Targets (number) was determined as 6 off-targets.

B11: CEACAM4_Nb41 (Fc fusion)
chain: QVQLQESGGGLVQAGGSLRLSCAASGTISRSSIMGWYRQAPGKEREFVAGISYGSTTYYADSVKGRFTISRDNAKNTVYLQMNSLKPEDTAVYYCAVRDLYVWDHAYWGQGTQVTVSS
notes: as for B3
Regarding B11, in test [8], the EC50 amounted to 32.7 nM.

B12: TIGIT_Nb2.84 (Fc fusion)
chain: QVQLQESGGGLVQAGGSLRLSCAASGNISYVRWMGWYRQAPGKERELVAGIGVGGITNYADSVKGRFTISRDNAKNTVYLQMNSLKPEDTAVYYCAATDVDWILYRYWGQGTQVTVSS
notes: as for B3
Consider B12, for which the EC50 in test [9] amounted to 483 nM.

B13: CCL16_Nb2.5 (Fc fusion)
chain: QVQLQESGGGLVQAGGSLRLSCAASGYIFGVYDMGWYRQAPGKERELVATISAGGTTNYADSVKGRFTISRDNAKNTVYLQMNSLKPEDTAVYYCAAYTDYSPYDGAALVYWGQGTQVTVSS
notes: as for B3
Take B13: in test [10], the EC50 came out at 1.78 nM.

B14: IL21_Nb2.28 (Fc fusion)
chain: QVQLQESGGGLVQAGGSLRLSCAASGSISNTYVMGWYRQAPGKERELVAAIGHGGTTYYADSVKGRFTISRDNAKNTVYLQMNSLKPEDTAVYYCAVYLSRVRKFYYWGQGTQVTVSS
notes: as for B3
Take B14: in [11], the EC50 turned out to be 3.14 nM.

B15: CEACAM4_Nb40 (Fc fusion)
chain: QVQLQESGGGLVQAGGSLRLSCAASGTISPGYGMGWYRQAPGKEREFVATIAFGSSTYYADSVKGRFTISRDNAKNTVYLQMNSLKPEDTAVYYCAVAIYIPYFFRYWGQGTQVTVSS
notes: as for B3
With B15, the concentration giving a half-maximal response (EC50) in test [8] came out at 14.5 nM.

B16: IL21 Nb2.29 (Fc fusion)
chain: QVQLQESGGGLVQAGGSLRLSCAASGNISWGTIMGWYRQAPGKEREFVAAISHGANTNYADSVKGRFTISRDNAKNTVYLQMNSLKPEDTAVYYCAAQSRAGSTRPRYHKYWGQGTQVTVSS
notes: as for B3
Turning to B16, the EC50 in [11] amounted to 3.73 nM.

B17: IL13_Nb2.42 (Fc fusion)
chain: QVQLQESGGGLVQAGGSLRLSCAASGTISATDFMGWYRQAPGKERELVAAINHGGSTYYADSVKGRFTISRDNAKNTVYLQMNSLKPEDTAVYYCAAARDDYPWHDYWGQGTQVTVSS
notes: as for B3
For the molecule B17, the concentration for a half-maximal effect (EC50) in test [7] is 38.4 nM.

B18: CEACAM4_Nb36 (Fc fusion)
chain: QVQLQESGGGLVQAGGSLRLSCAASGNIFLGPYMGWYRQAPGKEREFVASINYGASTNYADSVKGRFTISRDNAKNTVYLQMNSLKPEDTAVYYCAAGYYSNDYYYYEYSYWGQGTQVTVSS
notes: as for B3
Turning to B18, the concentration for a half-maximal effect (EC50) in [8] came to 15.6 nM.

B19: IL21_Nb2.30 (Fc fusion)
chain: QVQLQESGGGLVQAGGSLRLSCAASGTIFRETVMGWYRQAPGKERELVAAIDDGTSTYYADSVKGRFTISRDNAKNTVYLQMNSLKPEDTAVYYCAARASYTYGRLRFRYWGQGTQVTVSS
notes: as for B3
Regarding B19, the EC50 in test [11] was 7.16 nM.

B20: TIGIT_Nb2.81 (Fc fusion)
chain: QVQLQESGGGLVQAGGSLRLSCAASGTISLLEYMGWYRQAPGKEREFVAAITGGSSTNYADSVKGRFTISRDNAKNTVYLQMNSLKPEDTAVYYCAASLVPYDKDNLFFGYWGQGTQVTVSS
notes: as for B3
Consider B20, for which the EC50 in [9] came to 29.8 nM.

B21: TIGIT_Nb2.82 (Fc fusion)
chain: QVQLQESGGGLVQAGGSLRLSCAASGTISVVQDMGWYRQAPGKERELVAGIAKGGNTYYADSVKGRFTISRDNAKNTVYLQMNSLKPEDTAVYYCAASPIPFSYAYPAYHYWGQGTQVTVSS
notes: as for B3
For the molecule B21, the EC50 in test [9] is 12.8 nM.
